The text below walks through data of patent US20180030137A1 (ADURO BIOTECH HOLDINGS EUROPE B V, published 2018).

Where two headings read alike, the source gives them in different places.

Test [1] concerns the target T1, Human PD-1 (Swiss-Prot entry Q15116), full length, on cells (human, UniProt Q15116 21-288).
T1 construct: Full length open reading frame of hPD-1 stably expressed on CHO-K1 cells; also endogenous PD-1 on CD3/CD28-stimulated human CD3+ T cells and PD-1 on transfected Jurkat cells; also called hPD-1; hPDCD1
In words: CELISA on CHO-K1.hPDCD1 cells; blocking of biotinylated hPD-L2 Fc. How it is done: Parental CHO-K1 or CHO-K1.hPDCD1 cells were seeded in tissue culture plates and incubated for 72 hours at 37° C. in culture medium. […] Cells were then washed three times with PBST followed by addition of Streptavidin-HRP conjugate on the cells, which was incubated for 1 hour at 37° C. […] Reactions were stopped with 100 al 0.5 M H₂SO₄ and absorbances were read at 450 and 610 nm. […] Calculated IC50 values represent the concentration at which half of the inhibition is observed.

Test [2] has as its target T2, Macaca fascicularis PD-1 (Swiss-Prot entry B0LAJ3), full length, on cells (Macaca fascicularis, UniProt Q15116 25-288 (human entry)).
T2 construct: Full length open reading frame transiently expressed on CHO-K1 cells; also endogenous PD-1 on CD3/CD28-stimulated cynomolgus PBMCs; No signal peptide limits are stated for the cynomolgus entry; also called cyno PD-1; cynomolgus PD-1
T2 chain: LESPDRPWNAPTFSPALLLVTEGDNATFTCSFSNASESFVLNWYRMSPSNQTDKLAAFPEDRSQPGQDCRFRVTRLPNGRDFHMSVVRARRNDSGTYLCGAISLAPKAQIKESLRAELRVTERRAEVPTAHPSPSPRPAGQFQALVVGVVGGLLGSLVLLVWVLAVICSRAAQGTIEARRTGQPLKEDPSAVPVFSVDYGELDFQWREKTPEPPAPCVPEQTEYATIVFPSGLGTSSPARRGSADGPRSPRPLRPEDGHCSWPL
In words: CELISA on CHO-K1 cells transiently transfected with cyno PD-1. How it is done: Parental CHO-K1 or CHO-K1.cynoPD1 cells were seeded in tissue culture plates and incubated for 48 hours at 37° C. Subsequently culture medium was removed and cells were incubated for 1 hour with purified hPD-1 antibodies (10 μg/ml (=66 nM) and dilutions thereof) at 37° C. Next, cells were washed with PBST and incubated for 1 hour at 37° C. with Goat-anti-human (Jackson Immuno Research). Subsequently, cells were washed 3 times with PBST and anti-hPD1 immunoreactivity was visualized with 100 μL TMB Stabilized Chromagen (Invitrogen). Reactions were stopped with 100 μL 0.5 M H2SO4 and absorbances were read at 450 and 610 nm.

In test [3] the target is T1, Human PD-1 (Swiss-Prot entry Q15116), …. Put plainly: cell-based or functional assay.
Test [4] has the same target. In words: CELISA on CHO-K1.hPDCD1 cells. Here is the method:
(§1) To further characterize these mutant hPD-1 antibodies they were tested for binding to hPD-1 in CELISA format using CHO-K1 cells (American Type Culture Collection, Manassas, Va.), stably transfected with cDNA encoding the full length open reading frame of hPDCD1 (hPD-1), subcloned into the pCI-neo vector (Promega). Parental CHO-K1 or CHO-K1.hPDCD1 cells were seeded in culture medium (DMEM-F12 (Gibco) with 10% Fetal Bovine Serum (Hyclone) and Pen/Strep (Gibco)) in tissue culture plates and incubated for 48 hours at 37° C. Subsequently culture medium was removed and cells were incubated for 1 hour at 37° C. with the mutant hPD-1 antibodies (10 μg/ml (=66 nM) and dilutions thereof). Next, cells were washed with Phosphate-Buffered Saline/0.05% Tween (PBST) and incubated for 1 hour at 37° C. with Goat-anti-human IgG-HRP (Southern Biotech). Subsequently, cells were washed 3 times with PBST and anti-hPD1 immunoreactivity was visualized with 100 al TMB Stabilized Chromagen (Invitrogen). Reactions were stopped with 100 al 0.5 M H2SO4 and absorbances were read at 450 and 610 nm. […] Blockade of hPD-L1 binding by the mutant hPD-1 antibodies was tested in CELISA format. Parental CHO-K1 or CHO-K1.hPDCD1 cells were seeded in tissue culture plates and incubated for 72 hours at 37° C. in culture medium. Subsequently culture medium was removed and cells were incubated for 1 hour with the mutant hPD-1 antibodies (10 μg/ml (=66 nM) and dilutions thereof) at 37° C. […] Cells were then washed three times with PBST followed by addition of Streptavidin-HRP conjugate on the cells, which was incubated for 1 hour at 37° C. […] Reactions were stopped with 100 al 0.5 M H2SO4 and absorbances were read at 450 and 610 nm. Calculated IC50 values in Table 12 for the blockade of hPD-L1 represent the concentration at which half of the inhibition is observed.

Test [5] shares this target. In words: CELISA on CHO-K1.hPDCD1 cells; blocking of biotinylated hPD-L1 Fc. How it is done:
as §1

Test [6] has the same target. In words: CELISA on CHO-K1.hPDCD1 cells. How it is done:
To further characterize these mutant hPD-1 antibodies they were tested for binding to hPD-1 in CELISA format using CHO-K1 cells (American Type Culture Collection, Manassas, Va.), stably transfected with cDNA encoding the full length open reading frame of hPDCD1 (hPD-1), subcloned into the pCI-neo vector (Promega). Parental CHO-K1 or CHO-K1.hPDCD1 cells were seeded in culture medium (DMEM-F12 (Gibco) with 10% Fetal Bovine Serum (Hyclone) and Pen/Strep (Gibco)) in tissue culture plates and incubated for 48 hours at 37° C. Subsequently culture medium was removed and cells were incubated for 1 hour at 37° C. with the mutant hPD-1 antibodies (10 μg/ml (=66 nM) and dilutions thereof). Next, cells were washed with Phosphate-Buffered Saline/0.05% Tween (PBST) and incubated for 1 hour at 37° C. with Goat-anti-human IgG-HRP (Southern Biotech). Subsequently, cells were washed 3 times with PBST and anti-hPD1 immunoreactivity was visualized with 100 al TMB Stabilized Chromagen (Invitrogen). Reactions were stopped with 100 al 0.5 M H2SO4 and absorbances were read at 450 and 610 nm. […] Blockade of hPD-L1 binding by the mutant hPD-1 antibodies was tested in CELISA format. […] Reactions were stopped with 100 al 0.5 M H2SO4 and absorbances were read at 450 and 610 nm. Calculated IC50 values in Table 12 for the blockade of hPD-L1 represent the concentration at which half of the inhibition is observed.
The source holds these as a separate data set.

For test [7], the target named is T3, hPD-1/Fc fusion protein (R&D Systems) (human, UniProt Q15116 25-167).
T3 construct: Bought reagent; also called Recombinant hPD-1/Fc; not shown: Fc part of the bought fusion protein
In words: BLI (Octet RED96), hPD-1/Fc amine-coupled, IgG in solution, 1:1 global fit. Here is the method: This assay was, performed by coupling hPD-1/Fc fusion protein (R&D Systems) to amine-reactive second generation biosensors (Fortebio) using standard amine chemistry. […] Amine-reactive biosensors were pre-wet by immersing them in wells containing 0.1M MES pH=5.5 for 10 minutes. The biosensors were then activated using a 0.1M NHS/0.4M EDC mixture for 5 minutes. hPD-1/Fc fusion protein was coupled by immersing the biosensors in a solution of 12 ug/mL hPD-1/Fc in 0.1 M MES for 7.5 minutes. The biosensor surface was quenched using a solution of 1M ethanolamine for 5 minutes. Biosensors were equilibrated in Octet kinetics buffer (ForteBio) for 5 minutes. […] Dissociation was measured after transfer of the biosensors into kinetics buffer and monitoring of the interferometry signal for 45 minutes. The assay was run with a plate temperature of 30° C. The observed on and off rates (kobs and kd) were fit using a 1:1 binding global fit model comprising all concentrations tested, and the equilibrium binding constant KD was calculated.
(In general: BLI is a label-free optical method that tracks binding on a fibre tip over time.)

Broadly, the IC50 is the concentration that inhibits the measured activity by half. Low readings indicate greater potency, high ones weaker potency. As usually defined, the EC50 is the concentration at which the effect is half-maximal. A lower EC50 goes with greater potency. As a reminder, the Kd is the concentration at which binding is half-saturated. As usually defined, the koff is the first-order rate constant of dissociation. What is called kon is a measure of how fast the partners come together. Low readings indicate slower complex formation, high ones faster complex formation.

T1 sequence (Q15116 21-288, one chain of several): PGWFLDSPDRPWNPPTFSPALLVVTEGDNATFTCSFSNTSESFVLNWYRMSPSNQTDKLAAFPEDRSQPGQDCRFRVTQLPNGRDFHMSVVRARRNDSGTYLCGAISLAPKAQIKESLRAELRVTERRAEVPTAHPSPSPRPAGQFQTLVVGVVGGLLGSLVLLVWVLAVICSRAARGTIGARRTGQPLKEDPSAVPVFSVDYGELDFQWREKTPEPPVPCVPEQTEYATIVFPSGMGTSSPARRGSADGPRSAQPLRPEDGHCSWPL
T3 sequence (Q15116 25-167 limits assumed): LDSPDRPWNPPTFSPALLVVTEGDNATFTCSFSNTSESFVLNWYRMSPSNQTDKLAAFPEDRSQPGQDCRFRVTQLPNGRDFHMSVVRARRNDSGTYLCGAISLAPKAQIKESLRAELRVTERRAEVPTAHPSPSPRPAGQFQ

B1: hPD1.29H5L4 (antibody, V domains shown)
VH: EVQLVQSGAEVKKPGASVKVSCKASGYIFTTYYIHWVKQAPGKGLEWIGWIFPGDVSTQYNEKFQDKATITVDKSASTAYMQLSSLRSEDTAVYYCTREAYDYAVYWGQGTLVTVSS
VL: DIQMTQAPSSLSASVGDRVTITCKASQNVDTNVAWFQQKPGKAPKSLIFSASYRYSGVPSRFSGSGSGTDFTLTISSLQPEDFATYYCQQYNNYPFTFGGGTKLEIK
notes: Expressed as human IgG4, kappa with the stabilizing S241P (Kabat) hinge mutation in HEK293 cells; also called humanized PD-1 antibody hPD1.29H5L4
On to B1, for which the figures for the IC50 in test [1] and in test [5] were 0.61 nM and 1.3 nM, respectively. The EC50 worked out at 0.45 nM in test [2], 0.3 nM in test [4] and 0.13 nM in test [6]. The “IC50; NFAT-luciferase signal (RLU) of Jurkat cells expressing human PD-1, with CHO cells expressing hPD-L1” value in test [3] amounted to 4.39 nM. The Kd in test [7] amounted to 0.011 nM. This molecule also came in with a koff in test [7] of 9.2e-06 s⁻¹. The kon in test [7] was 860000 M⁻¹ s⁻¹.
